The text below walks through data of IntAct's records for PubMed 11447112.

The target of the experiment is gapa_dicdi gapA (UniProt O00899).
Sequence of gapa_dicdi gapA (O00899 whole entry): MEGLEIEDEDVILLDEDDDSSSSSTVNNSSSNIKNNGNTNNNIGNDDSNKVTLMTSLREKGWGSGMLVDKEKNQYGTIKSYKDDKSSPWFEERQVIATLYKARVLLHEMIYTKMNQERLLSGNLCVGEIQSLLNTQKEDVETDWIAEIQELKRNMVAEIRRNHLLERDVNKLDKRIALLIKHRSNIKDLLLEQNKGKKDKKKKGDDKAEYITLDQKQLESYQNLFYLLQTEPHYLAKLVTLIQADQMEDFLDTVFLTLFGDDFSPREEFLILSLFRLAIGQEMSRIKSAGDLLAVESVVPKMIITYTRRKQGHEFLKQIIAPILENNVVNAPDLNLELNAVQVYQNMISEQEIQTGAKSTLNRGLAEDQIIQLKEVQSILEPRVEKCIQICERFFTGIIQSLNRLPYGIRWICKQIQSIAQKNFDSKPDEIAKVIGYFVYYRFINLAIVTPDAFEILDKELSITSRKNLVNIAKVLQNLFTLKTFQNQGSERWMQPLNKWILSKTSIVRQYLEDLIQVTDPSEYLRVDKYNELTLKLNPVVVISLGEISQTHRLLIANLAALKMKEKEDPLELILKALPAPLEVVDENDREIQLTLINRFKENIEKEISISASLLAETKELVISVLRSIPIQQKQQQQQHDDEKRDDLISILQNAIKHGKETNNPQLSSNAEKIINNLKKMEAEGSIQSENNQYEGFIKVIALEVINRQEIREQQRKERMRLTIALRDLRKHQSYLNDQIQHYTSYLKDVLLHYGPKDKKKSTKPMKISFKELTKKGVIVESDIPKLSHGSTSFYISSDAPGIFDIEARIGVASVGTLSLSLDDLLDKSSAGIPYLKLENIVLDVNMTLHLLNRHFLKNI

Take “Rho-related protein rac1A (Dictyostelium discoideum (Slime mold)), P34144 G12N”: the “effect of a mutation on the interaction” value was “disrupting interaction”.
